# Data reported in paper PMC7267773, “CCDC61/VFL3 Is a Paralog of SAS6 and Promotes Ciliary Functions” (Structure(London, England:1993), 2020).
# B1: N-terminal head domain of human CCDC61 (hCCDC61^1-143) [human] / itself (parent)
# chain: GSMDQPAGLQVDYVFRGVEHAVRVMVSGQVLELEVEDRMTADQWRGEFDAGFIEDLTHKTGNFKQFNIFCHMLESALTQSSESVTLDLLTYTDLESLRNRKMGGRPGSLAPRSAQLNSKRYLILIYSVEFDRIHYPLPLPYQGKP
# Variants of: B1
# Assay: analytical ultracentrifugation (AUC)
# Conditions: with itself
row,screen value,Variant
1,16 kDa,chain 1 F130E D131A
